Test results taken from the nanobody polyreactivity screen of Harvey et al. (2022).

Assay: yeast display, Sf9 membrane polyspecificity reagent, FACS + sequencing; frameworks hold sequencing errors
How it was run: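 Synthetic nanobody libraries on Saccharomyces cerevisiae BJ5465 were galactose-induced for 36–48 hours, stained 1 hour at 4 °C with 10% biotinylated, detergent-solubilized Sf9 membrane reagent and enriched on streptavidin microbeads. FACS then separated cells into low and high (top ~1%) gates by anti-HA (expression) and streptavidin (reagent binding) fluorescence. Genes were colony-PCR amplified, MiSeq 2 × 250 sequenced and CDR-length filtered. A clone's polyreactivity label is that of its gate of origin.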

Row | Sequence | polyreactivity (PSR sort gate)
1 | QVQLVESGGGLVQAGGSLRLSCAASGSTFSWYAMGWYRQAPGKERELVAAISYSGGTYYADSVKGRFTISRDNEKNTVYLQMNSLKPEYNAVYYCAALRTRYGYDYWGQGTQVTLSS | high polyreactivity
2 | QVQLVESGGGLVQAGGSLRLSCAASGRIVTDSAMGWYSQAPGKDREFVAAIRRSGGSTYYAGCVKGRCTISRDTANNTVYLQMNSLKPEDTAVYYCAARGATSYYIFHSWGQGTQVTVSS | high polyreactivity
3 | QVQLVESGGGLVQAGGSLRLSCSASGRISVFNVMGWYRQAPGKERELVAAITSGGSTIYADSVKGRFTISRDNAKNTVYLQMNSLKPEDTAVYYCAALYQFHGKIWDGDYWGQGTQVTVSS | low polyreactivity
4 | QVQHVESGGGLVQAGGSLRLSCASSGSTFRYNAMGWYRQAPVKERELVAAISSSGGSTYYADSVKGRFTISRDNAKNTVYLQMNSLKPEDPEVYYCAAPTRSRFKGYYYWGQGTQVTVSS | high polyreactivity
5 | QVQLVESGGGLVQAGGSLRLSCAASGGTFTFKTMGWYRQAPGKERQLVAAISISGGSTYYADSVKGRFTISRDNAKNTVYLQMNSLKPEDTAVYYCAAQYVRTPSPEYDYWGQGTQVTVSS | high polyreactivity
6 | QVQLVESGGGLVQAGGSLRLSCAASGFNFQRYAMGWYRQAPGKERELVAAISVRGTRTYYADSVKGRFTISRDKAKNTVYFQMYSLKPVDTAVYYCNADWERDVQDEYWGQGTHVTVSS | high polyreactivity
7 | QVQLVESGGGLVQAGGSLRLSCAASGRTFRLYAMGWYRHAPGKERELVAAISRRGGSTYYADSVKGRFTISRDNAKNTVYLQMNSLKPEDTAVYYCAKGLGSGQEIYGYDYWGQGTQVTVSS | high polyreactivity
8 | QVQLVESGGGLVQAGGSLRLSCAASGRTSYTYVMGWYRQAPGKERELVAAIRLSGGNTYYADPVKGRFTISRDNAKNTVYLQMNSLKPEDTAVYYCAAQYWRHRKAYGYWGQGTQVTVSS | high polyreactivity
9 | QVQLVESGGGLVQAGGSLRLSCAASGYTFSYNAMGWYRQAPGKERELVARITRGTSTYADSVKGRFTISRDNAKNTVYLQMNSLKPEDTAVYYCAARPGSGRSYTSDYWGQGSQVTVSS | high polyreactivity
10 | QVQLVESGGGLVQAGGSLRLSCAASGGTFVYYTMGWYRQAPGKERELVAAISGRGGRTYYADSVKGRFTISRDNAKQTVYLQMNSLKPEDPAVYYCTATQIGPYYLPFDSWGQGTQVTVSS | high polyreactivity
11 | QVQLVESGGGLVQAGGSLRLSCAASGFIIFDYAMGWYRQAPGKESELVAAITSGGSTDYADSVKGRFTLSRDNAKNTVYLQMNSLKPEDTAVYYCAAVYGSVSRYDYWGQGTQVTVSA | low polyreactivity
12 | QVQLEESGRGLVQAGVSLRLSCAASGSTFYRYAMGWYRQAPGKERELVAANSQSGARTYYADSVKGRFTISRDNAKNTVYLQINSLKPEDTAVYYCAAYPVVNEFDYWGQGTQVTVSS | high polyreactivity
13 | QVQLVESGGGLVQAGGSLRLSCAASGRIFTKYAMGWYRQAPGKERELVAAISSRGGSTYYADSVKGRFTISRDNAKNTVYLQMNSLKPEDTAVYYCAAGYLPRYYYTPQFDGDYWGQGTQVTVSS | high polyreactivity
14 | QVQLVESGGGLVQAGGSLRLSCAASGITFGNYAMYWVRQAPGKERELVAAINYSRGSTYYADSVKGRFTISRDNAKNTVYLQMNSLKPQDTAVYYCAADTYPASYDYWGQGTQVTVSS | high polyreactivity
15 | QVQLVESGGGIVQAGGSLRLSCAASGLTFRKYAMGWYRQAPGKERELVAAIRFRGGSTYYADSVKGRFTISRDNAKNTVYLQMNSLKPEDTAVYYCNTAPVGLLYGRYDYWGEGTQVTVSS | high polyreactivity
16 | QVQLVESGGGLVQAGGSLRLSCAASGRTFRRNAMGWYRQAPGKERELVATISSSGGRTYYADSVKGRFTISRDNAKKTVYFQMNSLKPEDTAVYYCNKALRTYPLFYYWGQGTQVTVSS | high polyreactivity
17 | QVQLVESGGGLVQAGGSLRLSCAASGRIFYAYAMGWYRQAPGKEREFVAAISWGGGSTNYADSVKGRFTISRDNAKNTVYLQMNSLKPEDTAVYYCATGFYYYLTKTIPYEYEYWGQGTQVTVSS | low polyreactivity
18 | QVQLVESGGGLVQAGGSLRLSCAASGRIFYRYAMGWYRQAPGKEREFVAAISGTGGSTYYADSVKGRFTISRDNAKNTVYLQMNSLKPEDTAVDYCAASVVSRPTYYAYYYWGQGTQVTVSS | high polyreactivity
19 | QVQLVDSGGGLVQAGGRLRLSCAASGFIIDWNTKGWYRQAPGKERELVAAITESSGSTYYADSVKGRFTISRDNAKNTVYLLMNSLKPVDTAVYYCGAELDVSVCFVSRFHFDYWGQGTQVTVSS | low polyreactivity
20 | QVQLVESGGGLVQAGGSLRLSCAASGSIFYDYVMGWYRQAPGKERELVAAISVSGGRTYYADSVKGRFTISRDNAKNTVYLQMNSLKPEDTAVDYCAAKYPAGGRNYDYWGQGTQVTVSS | high polyreactivity
21 | QVQLVESGGGLVQAGGSLRLSCAASGSTFYSNPMGWSRQAPGKESEFVAAISWSGGSTYYADSVKGRFTISRDNAKNSVYFQMYSLKPQDTAVYSCAKKPYYYAYGGYGYWGQGNQVTVSS | high polyreactivity
22 | QVQLVESGGGLVQAGGSLRLSCAASGFILDWYAMGWYRQAPGKERELVAAISYSGGSTYYADSVKGRFTISRDNAKNTVYLQMNSLKPEDTAVYYCNADIWYGDMDYWGQGTQVTVSS | high polyreactivity

Row | Sequence | polyreactivity (PSR sort gate)
23 | QLQLVESGGGLVQAGGSLRLSCAASGRTFDDYAMGWYRQAPGKERELVAAISGSAGSTYYADSVKGRFTISRDNAKNTVYLQMNSLKPEDTAVYYCARGYGTYPLYYQYLAYYYWGQGTQVTVSS | low polyreactivity
24 | QVQLVESRGGLVQAGGSLRLSCAASGRIFASYTMGWYRQAHGKERELVAAISWRGDGTYYADSVKGRFTISRDNAKNTVYLQMNSLKPEDTAVYYCAADYVYYYHEYDYWGQGTQVTVSS | low polyreactivity
25 | QVQLVESGGGLVQAGGSLRLSCAASGRIFTVYAMGWYRQAPGKERELVAAIDFSDGTTYYADSVKARFTISRDNAKNTVYLQMNSLKPEDTAVYYCAAEGGSALDDDYWGQGTQVTVSS | high polyreactivity
26 | QVQLVESRGGLVQAGGSLRLSCAASGFTIDTYAMGWYRQAPGKERELVAGISWSGGSTYYADSVKGRFTISRDNAKNTVYLQMNSLKPEDTAVYYCNARDYSVGRYDYWGQGTQVTVSS | low polyreactivity
27 | QVQLVESGGGLVQAGGSLRLSCAASGSTFTPYAIGWYRQAPGKERELVAAIRRGGSTNYADSVKGRFTISRDNAKNTVYLQMNSLKPEDTAVYYCAATKRRFVKFDYWGQGTQVTVSS | low polyreactivity
28 | QVQLVESGGGLVQAGGSLRLSCAASGSTFVKYAMGWYRQAPGKERELVAAIDSSGGSTYYADSVKGRFTISRDNAKNTVYLQMNSLKAEDTAVYYCAAPRGNRLKGLEGYYWGQGTQVTVSS | high polyreactivity
29 | QVQHVESGGGLVQAGGSLRLSCAASGSTFYRNTKGWYRQAPGKETELVAAISRSGGSTYYADSVKGRFTISRDNAKNTVYVQMNSLKPEDTAVYYCNADYTDYQTYSATTYEYWGQGTQVTVSS | low polyreactivity
30 | QVQLEESGGGLVQAGGSLRLSCAASGLTFAYNTMGWYRQAPGKEREFVASISSSGGNTYYADSVKGRFTISRDNAKNTVYLQMNSLKPEDTAVYYCAAKKKYHYVASYKRFEYWGQGTQVTVSS | low polyreactivity
31 | QVQLQESGAGLVQAGGSLRLSCAASGSISAVGAMCWYRQAPGKEREFAASVNWATNTNYADSVKGRFTISRDNAKNTLYLQMNSLKPEDTAVYYCAVLPDWETRHDYWGHGTQVTVSS | low polyreactivity
32 | QVQLVESGGGLVQAGGSLRLSCAASGRTFRVYAMGWYRQAPGKERELVATLTGRGGSTDYADSVKGRFTISRDNAKNTVYLQMNILKPEDTAVYYCAAVGVSRRADPAWAGDYWGQGTQVTVSS | high polyreactivity
33 | QVHLVESGGGLVQAGGSLRLSCAASGSTFYVNAMGWDRQAPGKERELVAAIRSSGRTNYADSVKGRFTISRDNAKNTVYLQMNSLKPEDTAVYYCAAEVPHWPYYGRLHDRDYWGQGTQVTVSS | low polyreactivity
34 | QVQLVESGGGLVQAGGSLRLSCAASGITFYFYAMGWYRQAPGKERELVARITSRGTRTYYADSVKGRFTISRDNAKNTVYLQMNSLKPEDTAVYYCAAGVSWDDYYWGQGTQVTVSS | high polyreactivity
35 | QVQLVESGGGLVQAGGSLRLSCAASGSTFGIYVMGWYRQAPGKERELVADISSSGGSTYYADSVKGRFTISRDNAKNTVYLQMNSLKPEDTAVYYCNAYHWDGDGVFYEYDYWGQGTQVTVSS | high polyreactivity
36 | QVHLEESGGGLVQAGGSLRLSCAASGFIFNAYAMGWYRQAPGKERELVAAISSSGGRTYYADSVKGRFTISRDNAKNTVYLQMNSLKPEVTAVYYCNTYRYYQYYRSMDYWGQGTQVTVSS | high polyreactivity
37 | QVQLVESGGGLVQAGGSLRLSCAASGITLDVNAMGWYRQAPGKERELVADITWSDDSTYYADSVKGRFTISRDNAKNTVYLQMNSLKPEDTAVYYCAADVSVSFHPRGYDYWGQGTQVTVSS | low polyreactivity
38 | QVQLVESGGGLVQAGGSRRLSCAASGSISNRYAMGWYRPAPGKEREFVARIRRRGGSTNYADSVKGRFTISRDNAKKTVYLQMNSLKPEDTAVYYCNAYPYQLDYDYWGQGTQVTVSS | high polyreactivity
39 | QVQLVESGGGLVQAGGSLRLSCAASGRTLSVYAMGWYRQAPGKERELVAAITKSGGSTYYADSVKGRFTISRDNAKNTVYLQMNSLKPEDTAVYYCAAEGDWRGYALYNYWGQGTQVTVSS | low polyreactivity
40 | QVQLVESSGGLVQAGVSLRLSFAASGRIILNYPIGLYRKAPGKERELVAAITSDGSRSYADSVKGRFTISRDNAKNSVYLQMKSLKPEDTAVYYCANDFFEHSRVSHTYSSSKYDYGGQGTQVTVSS | low polyreactivity
41 | QVQLVESGGGLVQAGGSLRLSCAASGSTFRPNAMGWYRQAPGKERELVAAISRSGVSTYYADSVKGRFTISRDNAKNTVYLQMNSLKPEDTAVYYCARRYTGRPVLRESWGQGTQVTVSS | low polyreactivity
42 | QVQLVESGGGLVQAGGSLRLTCAASGGTFIKNAMGWYRQAPGKERELVAAISWSGGRTYYADSVKGRFTITRDNPKNTVYLPMNSLKPEDTAVYYCNARYAGRLSYSYEYWGQVTQVTVSS | high polyreactivity
43 | QVQLVESGGGLVQAGGSLRLSCAASGRIFLSNAMGWYIQAPGKEREFVAAISWRGGSTYYADSVKGRFTISRDNAKNTVYLQMNSLKPEDTAVYYCAVDVRYYYGRSYDYWGQGTQVTVSS | high polyreactivity
